Values of other authors as cited in publication PMC3268021.
Like-named read-outs stand apart in the source and are kept apart here. Values belong to the substance of their own block, whether it stands above or below them.

How the values were obtained:
[1] = molecular target: TXA2R (agonist-activated) (UniProt P21731)
TXA2R (ligand-free) = TXA2R (ligand-free) (UniProt P21731)
phospholipase C [2] = molecular target: phospholipase C (UniProt P19174)
phospholipase C [3] = molecular target: phospholipase C (UniProt P19174); remark: listed apart in the source
Calmodulin = Calmodulin (UniProt P0DP23)

Sequence of UniProt P19174 (P19174 2-1290): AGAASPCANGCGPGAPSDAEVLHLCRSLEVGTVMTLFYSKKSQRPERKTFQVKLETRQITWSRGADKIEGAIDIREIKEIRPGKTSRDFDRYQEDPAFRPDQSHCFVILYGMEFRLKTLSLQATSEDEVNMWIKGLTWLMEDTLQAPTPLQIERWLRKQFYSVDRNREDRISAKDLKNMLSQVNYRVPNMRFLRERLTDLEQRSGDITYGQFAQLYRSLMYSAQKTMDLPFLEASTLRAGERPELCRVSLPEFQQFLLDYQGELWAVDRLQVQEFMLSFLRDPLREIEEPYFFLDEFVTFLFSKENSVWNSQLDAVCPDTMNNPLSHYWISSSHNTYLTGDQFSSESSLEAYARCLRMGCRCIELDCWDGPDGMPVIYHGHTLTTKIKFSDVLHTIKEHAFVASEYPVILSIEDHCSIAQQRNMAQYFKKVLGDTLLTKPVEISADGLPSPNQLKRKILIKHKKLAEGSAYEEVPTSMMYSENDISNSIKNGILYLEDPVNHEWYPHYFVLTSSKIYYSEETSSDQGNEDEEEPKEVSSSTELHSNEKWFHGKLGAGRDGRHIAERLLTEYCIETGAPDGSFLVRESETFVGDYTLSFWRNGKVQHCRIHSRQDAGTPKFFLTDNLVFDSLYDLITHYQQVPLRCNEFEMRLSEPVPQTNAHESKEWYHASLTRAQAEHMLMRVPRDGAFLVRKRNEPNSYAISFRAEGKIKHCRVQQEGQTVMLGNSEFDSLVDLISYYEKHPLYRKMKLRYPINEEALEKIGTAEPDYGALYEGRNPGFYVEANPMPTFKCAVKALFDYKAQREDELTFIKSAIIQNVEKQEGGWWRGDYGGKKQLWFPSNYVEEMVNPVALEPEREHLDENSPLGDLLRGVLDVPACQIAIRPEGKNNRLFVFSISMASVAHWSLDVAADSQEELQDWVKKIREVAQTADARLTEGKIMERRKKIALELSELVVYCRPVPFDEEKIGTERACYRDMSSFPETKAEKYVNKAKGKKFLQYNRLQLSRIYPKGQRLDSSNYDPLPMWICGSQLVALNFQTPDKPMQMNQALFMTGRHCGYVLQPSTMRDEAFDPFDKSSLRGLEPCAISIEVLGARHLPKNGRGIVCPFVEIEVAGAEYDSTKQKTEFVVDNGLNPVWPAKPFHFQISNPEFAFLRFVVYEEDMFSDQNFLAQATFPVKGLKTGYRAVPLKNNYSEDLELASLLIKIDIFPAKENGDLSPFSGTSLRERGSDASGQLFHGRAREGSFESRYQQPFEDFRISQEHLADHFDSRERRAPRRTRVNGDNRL

Kd [1]: 240 µM | Kd (TXA2R (ligand-free)): 17 µM
Substance: Gαq C-terminal peptide C-terminal 15-mer peptide (from UniProt P50148)

Ki (phospholipase C [2]): 3.5 µM | Ki (phospholipase C [3]): 120 µM
Substance: PCI-peptide 724-736 724-736 (from UniProt P19174)

Kd (Calmodulin): 2 nM
Substance: pAC28 peptide of AC1 495-522 (from UniProt P19754)
